Assay results published in paper PMC4956467.

Key:
Experiment in all cases: BLI
[1] = target: HIV-1 viral infectivity factor (Vif), full length, refolded, biotinylated (HIV-1) (UniProt P12504)
A3Fc-CD2 Y307A = A3Fc-CD2 Y307A (human, UniProt Q9HC16 197-221+Q8IUX4:220-373, Y307A;internal_change)
A3Fc-CD2 W310A = A3Fc-CD2 W310A (human, UniProt Q9HC16 197-221+Q8IUX4:220-373, W310A;internal_change)
A3Fc-CD2 Y314A = A3Fc-CD2 Y314A (human, UniProt Q9HC16 197-221+Q8IUX4:220-373, Y314A;internal_change)
A3Fc-CD2 D313A = A3Fc-CD2 D313A (human, UniProt Q9HC16 197-221+Q8IUX4:220-373, D313A;internal_change)
A3Fc-CD2 Y308A = A3Fc-CD2 Y308A (human, UniProt Q9HC16 197-221+Q8IUX4:220-373, Y308A;internal_change)
A3Fc-CD2 F309A = A3Fc-CD2 F309A (human, UniProt Q9HC16 197-221+Q8IUX4:220-373, F309A;internal_change)

| Molecule | Kd [1] | Kd (A3Fc-CD2 Y307A) | Kd (A3Fc-CD2 W310A) | Kd (A3Fc-CD2 Y314A) | Kd (A3Fc-CD2 D313A) | Kd (A3Fc-CD2 Y308A) | Kd (A3Fc-CD2 F309A) |
| --- | --- | --- | --- | --- | --- | --- | --- |
| A3Fc-CD2 L263A (from UniProt Q9HC16 197-221; Q8IUX4 218-373) (domain or fragment) | 1.1 µM | – | – | – | – | – | – |
| chimeric A3F C-terminal domain (A3Fc-CD2), wild type (from UniProt Q9HC16 197-221; Q8IUX4 218-373) (domain or fragment) | 1.1 µM | – | – | – | – | – | – |
| TCCCTCAGACCCTTTTAGTCAGTGTGGAAAATCTCTAGCAGT (ssDNA) [42-mer ssDNA, viral U5 end of 3'-LTR] | – | 410 µM | 27 µM | 68 µM | 220 µM | 18 µM | 31 µM |
